# Measurements as given in the supplement of paper PMC10567573.
# ± gives the standard deviation.
# Assay: protein stability index of a GFP-peptide fusion (GPS, HEK-293T) (PSI 1-6); higher = more stable
# Details: c terminus: a fixed tail appended
# 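Note: 24-mer peptide tiles fused after GFP, lentivirally expressed, FACS-sorted into six equal bins by GFP/DsRed ratio, decoded by Illumina sequencing, PSI is the read-weighted mean bin number.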
Sequence,protein stability index (treatment: DMSO),"protein stability index (treatment: MLN4924 1 uM, 8 h)"
NIPGNSTLITAVELERFVNLHSLA [FBXO33],2.27 ± 0.24,2.23 ± 0.37
QFNVSGPGLLEEDNQWMTQINRLQ [NECAB1],3.02 ± 0.13,3.31 ± 0.19
KMVSAEISENRKRQWPTKSQTDRG [SDE2],4.52 ± 0.069,4.41 ± 0.2
LQRQAEQNPTASYYNVVLLRYQFS [FCHO1],2.23 ± 0.4,2.28 ± 0.34
KEDAKGKSEEELAECFRIFDRNAD [TNNC2],5.54 ± 0.24,5.71 ± 0.12
AATLLLALLSCCLTVVSFYQVAAL [TNFSF13B],3.24 ± 0.23,3.31 ± 0.32
SENIKLREENEKLRLENSSLFSQA [CCDC89],4.65 ± 0.08,4.58 ± 0.2
WGLDQEQVFSLGDGVSGGFFGIRD [ZBED1],2.91 ± 0.6,3.17 ± 0.3
RMTISLTVILIESTNEITYGLPIM [CLCN6],2.98 ± 0.3,3.06 ± 0.092
RLKEYTIKSHSSLPPNNSYADFER [DAPK3],3.58 ± 0.26,3.61 ± 0.25
GDAFGSSASEPQPASQAASSSSAS [SNAP91],5.48 ± 0.16,5.32 ± 0.31
QKNGGGAYLVPYLVLLIIIGIPLF [SLC6A17],2.37 ± 0.061,2.83 ± 1.5
KKVSEGPPLRLWRSVIEVPAVPEE [DLC1],3.37 ± 0.42,3.91 ± 0.46
FYPVMLILFLVIGGMLNFMMHDQR [SOAT2],3.34 ± 0.36,2.95 ± 0.11
NKLLLSIIILLELAILGGLVYYKF [VTI1B],2.96 ± 0.57,2.84 ± 0.49
TVRAMTHVINQGMAMYWGTSRWSS [KCNAB2],2.91 ± 0.42,2.75 ± 0.51
TYIPENNARGASIFSVTALDPDSK [PCDHGA10],4.49 ± 0.17,4.62 ± 0.15
ALLEGEKALWEDKTSLWEEENALW [CCDC70],3.41 ± 0.27,3.73 ± 0.33
TAWTEACQVEVRLLLAYNSSARIP [INTS4],3.03 ± 0.4,2.43 ± 0.49
FARVKKGADGVMRTMAPEKLLKSM [SNAP91],2.7 ± 0.18,3.05 ± 0.42
FDCPSELQHTQELFPQWHLPIKIA [STEAP1],2.78 ± 0.33,2.79 ± 0.38
WGDLLGEDSLAALSSVPSEAQISD [SNAP91],4.76 ± 0.3,4.71 ± 0.22
MVANILNNEAFMNQEITKAFHVRR [RHOBTB2],2.53 ± 0.27,2.5 ± 0.27

Sequence,protein stability index (treatment: DMSO),"protein stability index (treatment: MLN4924 1 uM, 8 h)"
KQLISQTKKKQWCYNCEEEAMYHC [ZMYND11],3.1 ± 0.17,3.22 ± 0.34
ERITILRGNHESRQITQVYGFYDE [PPP2CA],2.84 ± 0.13,3.1 ± 0.25
VDNARIVLQIDNARLAADDFRVKY [KRT18],2.58 ± 0.31,2.77 ± 0.21
SPAGELPKTVQQPTESEPVTINIQ [MATN2],5.29 ± 0.31,5.24 ± 0.38
VAGGLVACRVTELQQQPLCTSVNT [LRRC59],2.39 ± 0.5,2.59 ± 0.18
QACSLPASCCIDPREDGASVNDQC [TSPAN10],5.06 ± 0.27,5.11 ± 0.25
LDFCDFTAEMARVLTDSNHVPLQR [FBXO33],3.07 ± 0.46,3.26 ± 0.34
FVAFAAKLWSFFIYLLRRQIRTVI [CTDNEP1],3.29 ± 0.16,3.3 ± 0.31
SLDGRDPGNGTHGLSPEEKEQLSN [ELOA2],5.48 ± 0.23,5.64 ± 0.16
CTQVTQDGDIPNIPAEENASTSTP [FAM189A2],5.65 ± 0.2,5.5 ± 0.33
FNGELPNGRHKIPESQFPEFSTSL [SRPK2],3.51 ± 0.22,3.72 ± 0.32
APGYDPETVTVTVGPAEPTLVNFH [CPN1],3.89 ± 0.32,3.99 ± 0.35
NSTSVKKKSSRNIFSIVFVFFVCF [P2RY14],2 ± 0.64,–
RLELERKIESLMDEIEFLKKLHEE [PRPH],3.32 ± 0.17,3.44 ± 0.31
CESLTYGLPFILRPTSCWQLDWDE [M1AP],2.25 ± 0.15,2.04 ± 0.3
ESIESYDSCDRLTQSWSSQSSFNS [ETS1],3.91 ± 0.34,4.1 ± 0.3
RSHSDSLDHDIFQLIDPDENKENE [CDC25A],5.14 ± 0.44,5.48 ± 0.2
MLQATAEANNLAAAASAKDIYYNN [ATL3],3.15 ± 0.18,3.44 ± 0.38
GQAEEELIKAKSQARLEEQQRLAH [LRRC45],5.13 ± 0.26,4.91 ± 0.38
RLGPYVLLEPEEGGRAYQALHCPT [TRIB3],2.69 ± 0.1,2.87 ± 0.38
SSSSSSQAPGQPPGNQAEHGAVTV [ZBTB22],5.12 ± 0.15,5.08 ± 0.24
PGVQAPEDLEWERYRGRGSEEYRA [CHGB],4.8 ± 0.17,5.18 ± 0.63
SVTDVTTSSLRLNWEAPPGAFDSF [TNXB],3.54 ± 0.2,3.35 ± 0.16

Sequence,protein stability index (treatment: DMSO),"protein stability index (treatment: MLN4924 1 uM, 8 h)"
ISAEGFTDIDIDTLCAVLERDTLS [BTBD1],2.48 ± 0.3,2.63 ± 0.38
NEDEDLGPCEGPSKEDKDLDSSEG [SPANXN3],5.66 ± 0.21,5.54 ± 0.17
VEEVDMAEEFEQPTLSCEKYLTYD [ELOA2],5.09 ± 0.32,5.19 ± 0.39
EEERPLPEKEYQRQVWLLFEYPES [KCNA1],3.33 ± 0.12,3.63 ± 0.28
WIGLFLVATGSQQSLAQPLPGNTT,2.93 ± 0.55,2.96 ± 0.35
PKQSGSFRYLQGMLEAGEGGDWPG [PDLIM4],3.79 ± 0.34,3.96 ± 0.15
VAGSLAGAIAQSSIYPMEVLKTRM [SLC25A25],2.56 ± 0.11,2.54 ± 0.32
SNNKKNDEMQEVPNRVLAPEQSLK [SPANXN3],5.27 ± 0.16,5.36 ± 0.17
RLDIVKYLVENNANISIANKYDNT [FEM1B],2.5 ± 0.17,2.64 ± 0.4
YLLMVTVILLPYVSKVTGWCRDRL [TMEM175],3.27 ± 0.62,3.22 ± 0.66
LIYMVTIMGNLLIIVTIMASQSLG [OR4A15],3.18 ± 0.43,3.1 ± 0.29
STALERPSFLSQTGHGVSRGPSPV [FCHO1],4.1 ± 0.34,4.28 ± 0.42
IPVFRLARRRKKILFYCHFPDLLL [ALG2],2.88 ± 0.57,2.44 ± 0.29
AQVDGAAMFAADPKKPIGGNIIAH [RAD51],4.23 ± 0.18,4.36 ± 0.17
DVLLTLKHTVKEHECKLTQEILEL [IQUB],2.12 ± 0.2,1.96 ± 0.47
LLPDQARGEVPWSPELGRPHDRSQ [ZNF263],4.58 ± 0.17,4.86 ± 0.091
GDKSESPDEANVGKHPKDKTEDEN [TOR1AIP2],5.55 ± 0.2,5.44 ± 0.46
GCLLDDGLEGLFEDIDTSMYDNEL [SERTAD1],4.28 ± 0.48,4.32 ± 0.42
LLRPPVAAFVRAQADLLAHLVPEP [DNAAF3],2.23 ± 0.31,2.33 ± 0.31
AVLDCLLDFLPKDVKKEKLSPDIM [TENT5D],2.99 ± 0.65,2.63 ± 0.52
AEHMKRQRHPRLRPQSAQSSFPPS [AUP1],4.13 ± 0.12,4.43 ± 0.25
GFSPSYEFFAVTRFLVGMMNGGMS [SLC22A15],2.54 ± 1.2,2.28 ± 0.4
LLNQQSLKRSANQMGVSAKRRPKA [MED27],3.47 ± 0.3,3.82 ± 0.24

Sequence,protein stability index (treatment: DMSO),"protein stability index (treatment: MLN4924 1 uM, 8 h)"
EDTDPSTLSFNMSDKYPIQDTELP [EDARADD],5.11 ± 0.12,4.89 ± 0.089
LQCRSPPRLHGAKAILDAEPGPRP [TBC1D10A],4.46 ± 0.12,4.48 ± 0.12
QDIERGVQSEIFLHESYCMDTSHQ [LYSMD4],4.24 ± 0.15,4.25 ± 0.14
GRDSEGPAEGEGRLGRCMRRLRDM [KCNG1],4.99 ± 0.15,4.76 ± 0.15
SHAIHVEEQSDQSFSSLEPDNEQL [IQUB],5.38 ± 0.27,5.63 ± 0.17
NICENTEGAIAVHCKAGLGRTGTL [CDC14A],3.13 ± 0.22,3.21 ± 0.3
ENFQEGKDMSESQDEVPDEVENQF [TAF7L],5.58 ± 0.2,5.56 ± 0.24
GGVGGSSRARSASSPRGMVRVCDL [ANKRD17],3.97 ± 0.28,3.97 ± 0.36
TFNPHKRISAFRALQHSYLHKDEG [CDK4],2.87 ± 0.14,3.12 ± 0.09
QLNRRGEFIQEIRRQLEACQRERA [OAS1],4.09 ± 0.19,3.79 ± 0.075
MVGLILGPFGINHGIELHSDVVEY [PCMTD1],2.68 ± 0.65,2.85 ± 0.52
LEGSHDTANCEACTLGICGQGLKS [RTP4],5.13 ± 0.25,5.11 ± 0.12
CTPGGTTIYGLHALEQGGLRAATM [PYCR3],2.36 ± 0.73,2.25 ± 0.72
GPPPAQGSPGDGGLQDQVGAWGLP [EMID1],5.02 ± 0.12,5.03 ± 0.4
AAFPNLANLSRTQLLHLGLTQGLI [KLHDC10],2.58 ± 0.3,2.27 ± 0.2
MLLDIKTRLEQEIATYRSLLEGQD [KRT15],2.9 ± 0.34,3.07 ± 0.34
LKELQAIAERLGCTLPQLAIAWCL [KCNAB2],2.29 ± 0.74,2.27 ± 0.25
HQPVVRQCGPQTGLQSPGTLQPPE [TBX5],4.41 ± 0.27,4.63 ± 0.12
PATEEQEAASSSSTLVEVTLGEVP [MAGEA3],5.52 ± 0.17,5.51 ± 0.17
LDGAGLMGFVPHNGSLYGQASSER [ADAMTSL2],4.32 ± 0.67,3.58 ± 0.95
